Some targets named below: Hck(h) (human, UniProt P08631 251-518, limits assumed); ALK(h) (human, UniProt Q9UM73 1058-1620, limits assumed); JNK1α1(h) (human, UniProt P45983-2 1-384); Met(D1246N)(h) (human, UniProt P08581-2 974-1408, limits assumed); PDGFRα(D842V)(h) (human, UniProt P16234 550-1089, limits assumed); PKCδ(h) (human, UniProt Q05655 1-676); Plk3(h) (human, UniProt Q9H4B4 1-646, limits assumed); ROCK-II(h) (human, UniProt O75116 11-552).

What all share (test): cell-based or functional assay
The target in another test is T1, IRAK4(h) (human, UniProt Q9NWZ3 1-460, limits assumed).
T1 sequence (looked up): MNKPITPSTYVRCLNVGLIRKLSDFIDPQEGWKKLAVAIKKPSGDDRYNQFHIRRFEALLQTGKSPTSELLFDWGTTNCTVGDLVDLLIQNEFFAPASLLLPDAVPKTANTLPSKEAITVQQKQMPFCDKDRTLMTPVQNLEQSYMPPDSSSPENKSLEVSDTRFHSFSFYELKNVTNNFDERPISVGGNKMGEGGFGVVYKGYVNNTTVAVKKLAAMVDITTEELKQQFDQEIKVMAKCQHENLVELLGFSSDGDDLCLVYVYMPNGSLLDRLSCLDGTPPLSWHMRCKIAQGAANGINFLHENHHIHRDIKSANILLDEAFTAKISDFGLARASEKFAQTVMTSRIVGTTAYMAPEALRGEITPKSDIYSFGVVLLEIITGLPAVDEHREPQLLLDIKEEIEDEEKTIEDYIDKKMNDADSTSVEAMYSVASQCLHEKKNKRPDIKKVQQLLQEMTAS

A further test deals with T2, MST2(h) (human, UniProt Q13188 1-491, limits assumed).
T2 sequence (looked up): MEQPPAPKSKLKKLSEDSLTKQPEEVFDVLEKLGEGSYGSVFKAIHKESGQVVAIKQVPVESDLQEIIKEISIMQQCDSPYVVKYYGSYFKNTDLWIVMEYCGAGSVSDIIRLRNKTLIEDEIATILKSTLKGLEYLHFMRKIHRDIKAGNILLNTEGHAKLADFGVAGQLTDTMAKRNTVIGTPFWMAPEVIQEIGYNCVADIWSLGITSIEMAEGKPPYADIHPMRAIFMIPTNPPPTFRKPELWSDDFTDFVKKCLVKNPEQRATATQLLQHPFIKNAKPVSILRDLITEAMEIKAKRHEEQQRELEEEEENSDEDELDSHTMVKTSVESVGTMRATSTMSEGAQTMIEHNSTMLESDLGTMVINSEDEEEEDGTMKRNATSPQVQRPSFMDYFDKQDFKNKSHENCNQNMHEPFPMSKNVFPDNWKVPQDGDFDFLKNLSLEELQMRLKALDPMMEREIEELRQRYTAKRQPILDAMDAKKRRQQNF

The next test deals with T3, MuSK(h) (human, UniProt O15146 517-869, limits assumed).
T3 sequence (looked up): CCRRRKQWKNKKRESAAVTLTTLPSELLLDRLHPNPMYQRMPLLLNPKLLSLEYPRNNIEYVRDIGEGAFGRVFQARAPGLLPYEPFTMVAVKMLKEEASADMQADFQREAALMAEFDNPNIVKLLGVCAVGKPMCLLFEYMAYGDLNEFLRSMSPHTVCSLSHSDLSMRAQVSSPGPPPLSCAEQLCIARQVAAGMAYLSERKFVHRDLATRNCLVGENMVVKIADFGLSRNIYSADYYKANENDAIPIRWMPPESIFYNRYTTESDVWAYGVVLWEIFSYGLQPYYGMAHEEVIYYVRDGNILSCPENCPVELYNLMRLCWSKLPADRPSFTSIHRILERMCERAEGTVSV

The next test deals with T4, TSSK1(h) (human, UniProt Q9BXA7 1-367).
T4 sequence (looked up): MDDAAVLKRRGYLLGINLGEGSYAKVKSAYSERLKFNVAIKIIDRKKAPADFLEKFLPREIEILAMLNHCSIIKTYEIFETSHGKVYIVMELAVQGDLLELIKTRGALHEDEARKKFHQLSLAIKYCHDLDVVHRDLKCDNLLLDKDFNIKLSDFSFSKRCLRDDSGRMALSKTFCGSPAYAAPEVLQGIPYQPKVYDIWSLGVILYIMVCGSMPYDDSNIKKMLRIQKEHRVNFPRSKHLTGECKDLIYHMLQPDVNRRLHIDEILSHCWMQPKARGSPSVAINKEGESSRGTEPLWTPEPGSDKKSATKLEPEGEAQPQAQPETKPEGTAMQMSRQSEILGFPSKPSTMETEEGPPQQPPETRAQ

The target in a further test is T5, ULK2(h) (human, UniProt Q8IYT8 1-478, limits assumed).
T5 sequence (looked up): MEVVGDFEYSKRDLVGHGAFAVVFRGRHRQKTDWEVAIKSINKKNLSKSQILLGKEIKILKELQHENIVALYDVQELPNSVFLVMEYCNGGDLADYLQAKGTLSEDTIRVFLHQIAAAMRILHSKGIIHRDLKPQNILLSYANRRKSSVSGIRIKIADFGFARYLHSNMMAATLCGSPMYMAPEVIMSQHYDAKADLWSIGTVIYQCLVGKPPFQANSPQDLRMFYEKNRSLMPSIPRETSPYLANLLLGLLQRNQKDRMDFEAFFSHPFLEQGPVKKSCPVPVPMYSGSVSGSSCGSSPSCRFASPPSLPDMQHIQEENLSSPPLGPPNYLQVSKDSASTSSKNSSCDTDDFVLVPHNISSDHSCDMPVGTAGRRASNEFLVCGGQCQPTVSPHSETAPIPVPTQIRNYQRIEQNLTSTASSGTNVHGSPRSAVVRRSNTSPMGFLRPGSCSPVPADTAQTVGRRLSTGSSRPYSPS

Plk3(h), sequence (Q9H4B4 whole entry): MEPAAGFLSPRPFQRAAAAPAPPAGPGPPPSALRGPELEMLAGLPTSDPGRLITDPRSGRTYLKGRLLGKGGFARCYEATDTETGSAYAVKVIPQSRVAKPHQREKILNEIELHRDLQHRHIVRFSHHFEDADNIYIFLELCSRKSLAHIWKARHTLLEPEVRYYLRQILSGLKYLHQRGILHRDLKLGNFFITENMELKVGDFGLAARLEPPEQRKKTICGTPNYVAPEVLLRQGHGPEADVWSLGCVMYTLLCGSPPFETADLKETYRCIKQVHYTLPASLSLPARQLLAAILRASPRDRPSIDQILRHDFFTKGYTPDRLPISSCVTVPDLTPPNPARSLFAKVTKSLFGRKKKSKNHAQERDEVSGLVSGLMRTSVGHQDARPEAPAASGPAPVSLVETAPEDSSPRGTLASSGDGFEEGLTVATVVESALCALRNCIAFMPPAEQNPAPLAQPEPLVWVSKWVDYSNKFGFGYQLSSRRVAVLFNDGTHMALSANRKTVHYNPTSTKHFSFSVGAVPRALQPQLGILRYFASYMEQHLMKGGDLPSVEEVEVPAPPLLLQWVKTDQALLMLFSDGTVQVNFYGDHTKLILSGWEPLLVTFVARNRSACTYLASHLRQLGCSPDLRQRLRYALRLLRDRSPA
PKCδ(h), sequence (Q05655 whole entry, stated change not applied): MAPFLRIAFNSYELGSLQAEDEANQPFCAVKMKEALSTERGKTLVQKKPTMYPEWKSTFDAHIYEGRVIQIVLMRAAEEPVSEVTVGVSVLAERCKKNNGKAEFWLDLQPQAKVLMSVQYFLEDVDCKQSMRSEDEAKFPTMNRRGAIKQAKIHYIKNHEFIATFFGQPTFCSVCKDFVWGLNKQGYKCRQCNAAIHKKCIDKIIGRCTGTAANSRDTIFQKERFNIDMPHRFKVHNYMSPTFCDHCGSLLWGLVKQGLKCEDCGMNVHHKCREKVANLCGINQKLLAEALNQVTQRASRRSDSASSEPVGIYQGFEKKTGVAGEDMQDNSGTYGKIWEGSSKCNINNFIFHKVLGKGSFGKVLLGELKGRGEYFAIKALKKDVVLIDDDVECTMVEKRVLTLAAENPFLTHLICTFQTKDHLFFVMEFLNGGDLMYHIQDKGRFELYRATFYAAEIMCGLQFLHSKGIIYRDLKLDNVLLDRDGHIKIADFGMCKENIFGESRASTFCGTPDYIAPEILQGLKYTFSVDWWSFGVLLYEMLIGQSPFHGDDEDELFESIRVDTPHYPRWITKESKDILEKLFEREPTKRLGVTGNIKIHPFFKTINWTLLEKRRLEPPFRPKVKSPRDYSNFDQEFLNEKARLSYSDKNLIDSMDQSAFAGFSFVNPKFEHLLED
ROCK-II(h), sequence (O75116 11-552 limits assumed): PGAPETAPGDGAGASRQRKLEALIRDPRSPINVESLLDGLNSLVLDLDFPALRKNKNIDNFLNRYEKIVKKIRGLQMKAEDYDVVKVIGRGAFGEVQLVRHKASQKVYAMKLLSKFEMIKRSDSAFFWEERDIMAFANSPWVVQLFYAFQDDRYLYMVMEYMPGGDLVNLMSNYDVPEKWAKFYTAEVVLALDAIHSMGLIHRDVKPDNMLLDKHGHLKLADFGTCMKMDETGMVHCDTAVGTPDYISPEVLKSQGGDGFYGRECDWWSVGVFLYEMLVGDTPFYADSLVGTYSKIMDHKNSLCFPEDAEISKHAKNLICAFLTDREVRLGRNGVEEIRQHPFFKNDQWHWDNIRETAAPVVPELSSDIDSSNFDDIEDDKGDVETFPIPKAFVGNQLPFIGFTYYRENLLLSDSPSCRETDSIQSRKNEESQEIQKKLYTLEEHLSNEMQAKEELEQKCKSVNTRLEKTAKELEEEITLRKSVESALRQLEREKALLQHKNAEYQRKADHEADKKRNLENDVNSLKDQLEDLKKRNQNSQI
PDGFRα(D842V)(h), sequence (P16234 550-1089 D842V limits assumed): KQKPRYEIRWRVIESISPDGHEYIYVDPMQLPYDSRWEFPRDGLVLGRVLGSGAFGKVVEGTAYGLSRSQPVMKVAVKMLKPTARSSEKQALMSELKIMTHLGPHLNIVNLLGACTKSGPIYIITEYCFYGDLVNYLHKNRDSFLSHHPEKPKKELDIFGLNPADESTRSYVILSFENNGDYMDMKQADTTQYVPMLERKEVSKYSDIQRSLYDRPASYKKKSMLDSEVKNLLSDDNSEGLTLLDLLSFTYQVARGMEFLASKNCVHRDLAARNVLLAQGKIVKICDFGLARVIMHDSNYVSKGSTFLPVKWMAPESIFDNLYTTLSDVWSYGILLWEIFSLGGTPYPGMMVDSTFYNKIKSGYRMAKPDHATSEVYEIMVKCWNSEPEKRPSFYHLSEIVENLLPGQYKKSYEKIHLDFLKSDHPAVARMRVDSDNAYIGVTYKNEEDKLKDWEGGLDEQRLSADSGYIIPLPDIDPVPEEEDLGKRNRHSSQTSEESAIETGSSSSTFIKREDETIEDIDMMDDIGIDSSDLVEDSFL
JNK1α1(h), sequence (P45983 other isoform, or with tags, fused parts or gaps limits assumed): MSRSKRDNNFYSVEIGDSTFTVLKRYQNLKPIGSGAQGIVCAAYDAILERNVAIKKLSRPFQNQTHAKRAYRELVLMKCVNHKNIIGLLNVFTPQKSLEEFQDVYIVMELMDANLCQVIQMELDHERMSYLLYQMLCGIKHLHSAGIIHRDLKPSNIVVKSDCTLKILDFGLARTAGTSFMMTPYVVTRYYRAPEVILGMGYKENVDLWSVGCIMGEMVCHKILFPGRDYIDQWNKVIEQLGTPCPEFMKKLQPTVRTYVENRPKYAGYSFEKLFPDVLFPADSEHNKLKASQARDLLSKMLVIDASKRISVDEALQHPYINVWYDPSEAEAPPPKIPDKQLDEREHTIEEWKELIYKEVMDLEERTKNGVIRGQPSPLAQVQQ
ALK(h), sequence (Q9UM73 1058-1620 limits assumed): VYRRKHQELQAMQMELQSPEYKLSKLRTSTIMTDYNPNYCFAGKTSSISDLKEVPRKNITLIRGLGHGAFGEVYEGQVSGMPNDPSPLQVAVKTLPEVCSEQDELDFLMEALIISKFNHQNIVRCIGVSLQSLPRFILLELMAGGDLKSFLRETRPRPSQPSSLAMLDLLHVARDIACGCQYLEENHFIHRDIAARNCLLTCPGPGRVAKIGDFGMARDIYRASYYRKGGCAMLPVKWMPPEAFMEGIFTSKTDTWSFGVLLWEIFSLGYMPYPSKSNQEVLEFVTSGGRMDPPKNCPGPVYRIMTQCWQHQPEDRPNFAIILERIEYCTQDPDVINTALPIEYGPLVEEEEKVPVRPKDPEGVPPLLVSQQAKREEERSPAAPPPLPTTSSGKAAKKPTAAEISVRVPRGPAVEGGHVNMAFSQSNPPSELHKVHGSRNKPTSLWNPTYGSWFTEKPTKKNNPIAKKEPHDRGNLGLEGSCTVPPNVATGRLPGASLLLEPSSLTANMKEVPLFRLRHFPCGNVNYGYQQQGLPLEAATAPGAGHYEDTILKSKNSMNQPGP
Hck(h), sequence (P08631 251-518 limits assumed): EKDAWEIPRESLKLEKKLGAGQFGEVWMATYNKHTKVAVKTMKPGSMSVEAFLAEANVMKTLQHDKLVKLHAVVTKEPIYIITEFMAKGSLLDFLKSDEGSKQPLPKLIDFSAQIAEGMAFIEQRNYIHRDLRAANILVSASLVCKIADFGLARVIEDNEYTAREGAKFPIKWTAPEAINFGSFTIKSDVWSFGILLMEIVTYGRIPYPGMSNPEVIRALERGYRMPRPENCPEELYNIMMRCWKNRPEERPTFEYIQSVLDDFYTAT

For FAKLAARLYRKALARQLGVAA [MMI-0300], the “% activity” value came to 72% with Hck(h); 59% with IRAK4(h); 19% in the test with ALK(h); 97% in the test with JNK1α1(h); 82% with Met(D1246N)(h); 19% with MST2(h). Besides, the “% activity” value is 93% in the test with MuSK(h); 114% with PDGFRα(D842V)(h); 101% with PKCδ(h); 127% in the test with Plk3(h); 74% in the test with ROCK-II(h); 79% with TSSK1(h). In the test with ULK2(h), the “% activity” value was 122%.
As for KAFAKLAARLYRKALARQLGVAA [MMI-0400], the “% activity” value with Hck(h) came to 72%; in the test with IRAK4(h) it was 59%; with ALK(h) it was 16%; with JNK1α1(h), 98%; in the test with Met(D1246N)(h), 31%; with MST2(h), 11%. Besides, the “% activity” value was found to be 93% with MuSK(h); 118% with PDGFRα(D842V)(h); 90% with PKCδ(h); 129% in the test with Plk3(h); 77% in the test with ROCK-II(h); 79% in the test with TSSK1(h). In addition, the “% activity” value with ULK2(h) came to 131%.

The values are drawn from US20160200782A1 (MOERAE MATRIX, published 2016).
